# Test results taken from publication PMC9200065.
# T1: MBP-GLD-1(135-336) WT (C. elegans, UniProt Q17339 135-336)
# T1 sequence: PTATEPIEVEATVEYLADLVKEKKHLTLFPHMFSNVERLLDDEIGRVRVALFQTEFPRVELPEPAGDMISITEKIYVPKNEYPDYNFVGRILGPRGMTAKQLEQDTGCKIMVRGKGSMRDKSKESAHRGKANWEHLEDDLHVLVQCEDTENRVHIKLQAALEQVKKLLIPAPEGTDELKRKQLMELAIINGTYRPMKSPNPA
# Target: T1, MBP-GLD-1(135-336) WT
# Assay: EMSA
binder,measurement,value
UUUUUCUUAUUCUAGACUAAUAUUGUAAGCU (ssRNA) [glp-1 3'UTR fragment],binding result,binds
